T1: recombinant human LPHN2 lectin-olfactomedin-like domain, residues F26-P394 (human, UniProt O95490 26-394)
T1 chain: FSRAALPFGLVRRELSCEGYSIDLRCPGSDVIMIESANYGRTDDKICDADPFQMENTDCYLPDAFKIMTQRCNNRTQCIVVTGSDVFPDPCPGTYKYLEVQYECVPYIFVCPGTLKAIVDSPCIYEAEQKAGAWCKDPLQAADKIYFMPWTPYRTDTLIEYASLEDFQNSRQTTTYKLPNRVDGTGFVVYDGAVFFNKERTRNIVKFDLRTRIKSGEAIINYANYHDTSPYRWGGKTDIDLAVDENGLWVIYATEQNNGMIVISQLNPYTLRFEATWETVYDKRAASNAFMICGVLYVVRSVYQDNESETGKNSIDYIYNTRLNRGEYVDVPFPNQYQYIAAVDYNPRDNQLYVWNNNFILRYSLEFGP

B1: deglycosylated LRG1 (LRG1 treated with PNGase F) (ligand)
chain: VTLSPKDCQVFRSDHGSSISCQPPAEIPGYLPADTVHLAVEFFNLTHLPANLLQGASKLQELHLSSNGLESLSPEFLRPVPQLRVLDLTRNALTGLPPGLFQASATLDTLVLKENQLEVLEVSWLHGLKALGHLDLSGNRLRKLPPGLLANFTLLRTLDLGENQLETLPPDLLRGPLQLERLHLEGNKLQVLGKDLLLPQPDLRYLFLNGNKLARVAAGAFQGLRQLDMLDLSNNSLASVPEGLWASLGQPNWDMRDGFDISGNPWICDQNLSDLYRWLQAQKDKMFSQNDTRCAGPEAVKGQTLLAVAKSQ
modifications: N-linked glycans removed with PNGase F (sites N79, N186, N269, N325 on SEQ ID NO: 1)
B2: recombinant human LRG1 (leucine-rich alpha-2 glycoprotein 1), residues V36-Q347, untagged, glycosylated (ligand)
chain: B1 chain
modifications: glycosyl groups at T37 (O-linked), N79, N186, N269 and N325 (N-linked), numbered on SEQ ID NO: 1
B3: DG-LRG1 (ligand)
chain: B1 chain
modifications: N-linked glycans removed with PNGase F (sites N79, N186, N269, N325 on SEQ ID NO: 1)

How the values were obtained:
[1] = target: T1, recombinant human LPHN2 …; assay: solid-phase binding (ELISA)
LPHN2 Lec = assay: solid-phase binding (ELISA)

Binder | Kd [1] | Kd (LPHN2 Lec)
B1 | 430 nM | –
B2 | 890 nM | –
B3 | – | 1100 nM
